Tests used:
Cx43 hemichannels [1] = target: T1, Cx43 hemichannels (Homo sapiens, UniProt P17302); test: Extracellular ATP release after irradiation, TIME cells; type: cell-based
T1 construct: endogenous in cells; host or cells: TICAE and TIME cells (human endothelial cell lines)
Procedure: Hemichannels are an ATP release pathway and we therefore determined extracellular ATP after irradiation. To that purpose, TICAE and TIME cells were seeded in a 96-well plate at a density of 1×10^5 cells/well and 0.3×10^5 cells/well, respectively, in six to eight biological replicates. Three days later, cells reached 100% confluence. At 30 minutes before irradiation, cells were refreshed with 100 μl medium alone or with medium supplemented with 100 μM TAT-Gap19 (Genosphere Biotechnologies, Paris, France) to block the Cx43 hemichannels. For fractionated irradiation, cells were refreshed with 150 μl medium/well. At different time points after irradiation (1, 6 and 72 h), 1:5 ATP assay mix dissolved in ATP mix dilution buffer (Sigma-Aldrich Co. LCC, Diegem, Belgium) was added to each well. Extracellular ATP release was assessed by measuring the luminescence signal received after oxidation of luciferin and ATP to oxyluciferin and AMP using the CLARIOstar® microplate reader (BMG Labtech, Temse, Belgium). Experiments were corrected for baseline ATP signal in medium in the absence or presence of TAT-Gap19.

Cx43 hemichannels [2] = target: T1, Cx43 hemichannels; test: Propidium iodide dye uptake assay after irradiation, TICAE cells; type: cell-based
Source text: Hemichannel opening was also investigated by dye uptake studies making use of the hemichannel permeable fluorescent tracer propidium iodide (PI; MW 668.4 Da). In addition, dextran fluorescein 10 kDa dye was used to assess membrane integrity and occurrence of cell death. PI stains cells with open hemichannels, late apoptotic and necrotic cells, while dextran fluorescein only stains late apoptotic and necrotic cells. Therefore, PI-positive and dextran fluorescein-negative cells are a measure for hemichannel opening while dextran fluorescein-positive cells are a measure for dead cells.
TICAE and TIME cells were seeded in a 24-well plate at a density of 1.25×10^5 and 1.5×10^5 cells/well, respectively, in six biological replicates. Three days later, cells reached 100% confluence. Thirty minutes before irradiation, cells were refreshed with 1 ml medium alone or with medium supplemented with 100 μM TAT-Gap19 (Genosphere Biotechnologies, Paris, France). For fractionated irradiation, cells were refreshed with 1.5 ml medium/well. At different time points after irradiation (1, 6 and 72 h), cells were washed twice with HMS supplemented with 25 mM HEPES (Sigma-Aldrich Co. LCC, Diegem, Belgium) (HBSS-HEPES). Afterwards, the cells were incubated with 1 mM PI and 200 μM dextran fluorescein (10 kDa) (Life Technologies, Merelbeke, Belgium), dissolved in HBSS-HEPES for 5 minutes followed by 5 times washing with MSS-HEPES. Finally, the fluorescence was measured using an IncuCyte ZOOM® system (Essen BioScience, Ann Arbor, Mich., USA) by using different channels (TRITC, FITC and phase contrast) and a 10× objective Fluorescence signal was normalized to cell number.

TIME cells [3] = test: IGFBP-7 and GDF-15 multiplex-based assays, TIME cells; type: cell-based, human; conditions: 7 d p.i.
Procedure: TICAE and TIME cells were seeded in a 6-well plate at a density of 2.5×10^5 cells/well in 5 to 6 biological replicates. Two to three days later, cells reached 100% confluence. At 30 minutes before X-ray exposure, cells were refreshed with medium with or without 100 μM TAT-Gap19 (Genosphere Biotechnologies, Paris, France). At 24 h, 48 h, 72 h and 7 d after irradiation, the supernatant was collected. Medium was changed only for the 7 d time point experiment at the fourth day with fresh medium alone or with medium supplemented with 100 μM TAT-Gap19. For the simultaneous detection of multiple cytokines in the supernatants, the Magnetic Luminex® Assay (R&D systems, Minneapolis, […]) was used following manufacturer's instructions. Briefly, supernatants, standards and microparticles were incubated into a 96-well plate which was pre-coated with cytokine-specific antibodies. The immobilized antibodies were able to bind the cytokines of interest after 2 h incubation, then the plate was washed and incubation with a biotinylated antibody cocktail specific to the cytokines of interest was performed for 1 h. A second wash was performed to remove the unbound biotinylated antibodies. Further, a streptavidin-phycoerythrin conjugate was added to each well to bind to the biotinylated antibodies. After a final wash, the microparticles were resuspended in buffer and read using the Luminex® MAGPIX Analyzer (R&D systems, Minneapolis, […]).

TIME cells [4] = test: DNA damage, gamma H2AX and TP53BP1 foci, TIME cells; type: cell-based, human; conditions: 100 μM TAT-Gap19, 0.1 and 5 Gy, 1 h p.i.
Procedure: To detect DNA double strand breaks after IR, TICAE and TIME cells were seeded in Nunc™ Lab-Tek™ Chamber Slide (Thermo Fisher Scientific, Asse, Belgium) in 8 replicates, at seeding density of 50 000 cells/well. Two days later, cells reached 100% confluence. At 30 min before IR, a fresh medium was added to the cells with or without 100 μM TAT-Gap19. At 1 h post irradiation, cells were fixed with 2% PFA (Sigma-Aldrich Co. LCC, Diegem, Belgium) and permeabilized with 0.25% Triton X-100 (Sigma-Aldrich Co. LCC, Diegem, Belgium) in PBS. Cells were blocked for 1 h in 1% normal goat serum (Thermo Fisher Scientific, Asse, Belgium) in Tris-NaCl (Perkin Elmer, Brussels, Belgium). Thereafter, staining with 1/300 primary anti-gamma H2AX antibody (Merck-Millipore #05-636) and 1/1000 anti-TP53BP1 antibody (Novus Biologicals #NB100-304) was performed for 1 h at 37° C. After washing 3 times with PBS, secondary Alexa Fluor 488 and 568 antibodies (Life Technologies, Merelbeke, Belgium) were applied for 1 h at 37° C. Finally, the slides were mounted using ProLong Diamond Antifade Mountant with DAPI (Life Technologies, Merelbeke, Belgium), and cells were visualized with an Eclipse Ti automated inverted wide-field epifluorescence microscope (Nikon, Brussels, Belgium) equipped with a 20×Plan Fluor objective (NA 0.6) and an Andor Ixon EMCCD camera, controlled by the MS Elements software. […]

RBE4 cells = test: Irradiation-induced ATP release, RBE4 cells; type: cell-based, rat; conditions: broad-beam 1 Gy, 5 min post-irradiation, BAPTA-AM 10 μM, NALC 1 mM, c-PTIO 100 μM
Procedure: ATP was measured using a luciferin-luciferase assay kit (Sigma-Aldrich) in combination with a luminometer plate reader (Victor3 1420 multi label counter; Perkin Elmer, Zaventem, Belgium).
Extracellular ATP measurements were initially carried out at different time-points post-irradiation, the effect of blockers on ATP release was tested at the 5 min post-irradiation time-point (time of maximum ATP release).

T1 sequence (P17302 whole entry): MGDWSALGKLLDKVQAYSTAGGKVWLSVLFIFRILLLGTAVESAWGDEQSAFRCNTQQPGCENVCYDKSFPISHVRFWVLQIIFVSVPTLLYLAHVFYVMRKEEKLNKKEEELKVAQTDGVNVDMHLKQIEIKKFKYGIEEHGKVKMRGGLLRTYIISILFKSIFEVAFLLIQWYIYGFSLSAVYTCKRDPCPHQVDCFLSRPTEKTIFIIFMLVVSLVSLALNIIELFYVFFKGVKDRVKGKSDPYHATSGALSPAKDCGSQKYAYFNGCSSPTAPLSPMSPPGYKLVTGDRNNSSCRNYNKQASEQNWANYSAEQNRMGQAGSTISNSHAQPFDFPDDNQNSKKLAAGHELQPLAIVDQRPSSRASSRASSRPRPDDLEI

**Q.** How did the “radiation-induced ATP release” value (Cx43 hemichannels [1]; 100 μM TAT-Gap19, fractionated irradiation 0.1 and 5 Gy, 72 h p.i.) turn out when “TAT-Gap19: connexin mimetic peptide, amino-acids 128-136 of the CL of Cx43 (SEQ ID NO: 2), Gap19 linked to TAT sequence; Cx43 hemichannel inhibitor (YGRKKRRQRRRKQIEIKKFK)” was run?
**A.** The value was “significantly inhibited the 5 Gy responses only”.

**Q.** And the “radiation-induced ATP release” value (Cx43 hemichannels [1]; 100 μM TAT-Gap19, single 0.1 Gy, 1 h p.i.)?
**A.** Its value is “no inhibition was observed”.

**Q.** And the “radiation-induced ATP release” value (Cx43 hemichannels [1]; 100 μM TAT-Gap19, single 0.1 and 5 Gy, 1, 6, 72 h p.i., most cases)?
**A.** The value was “significantly inhibited the radiation-induced ATP release”.

**Q.** What about the “radiation-induced PI dye uptake” value (Cx43 hemichannels [2]; 100 μM TAT-Gap19, fractionated 5 Gy, 72 h) of the same substance?
**A.** Its value is “had no effect”.

**Q.** And the “radiation-induced PI dye uptake” value (Cx43 hemichannels [2]; 100 μM TAT-Gap19, single 5 Gy, 1 h p.i.)?
**A.** Its value is “Significant inhibition”.

**Q.** What about the “radiation-induced PI dye uptake” value (Cx43 hemichannels [2]; 100 μM TAT-Gap19, single irradiation, 72 h p.i.) of the same substance?
**A.** Its value is “most clear and significant at the 72 h p.i. time point”.

**Q.** And the GDF-15 (TIME cells [3]; 100 μM TAT-Gap19, 0, 0.1 and 5 Gy)?
**A.** Its GDF-15 is “significantly inhibited these responses in all treated conditions”.

**Q.** And the IGFBP-7 control readout (TIME cells [3]; 100 μM TAT-Gap19, 0 Gy control)?
**A.** Its IGFBP-7 control readout is “increased”.

**Q.** What about the IGFBP-7 (TIME cells [3]; 100 μM TAT-Gap19, 0.1 Gy) of the same substance?
**A.** The IGFBP-7 was “acted in a significantly inhibitory way”.

**Q.** And the “IGFBP-7 (radiation-induced increase)” value (TIME cells [3]; 100 μM TAT-Gap19, 5 Gy)?
**A.** The value was “not inhibited”.

**Q.** And the “gamma H2AX, TP53BP1 and colocalized foci (radiation-induced DNA damage)” value (TIME cells [4])?
**A.** Its value is “not affected”.

**Q.** And the “irradiation-induced ATP release” value (RBE4 cells)?
**A.** The value was “inhibited”.

Reference: patent publication US20200384072A1, “THERAPY OF IONIZING RADIATION-INDUCED DISORDERS” (SCK-CEN, priority 2019, published 2020)
